This passage reports koff results from patent publication US20110123544A1 (published 2011).

Where two headings read alike, the source gives them in different places.

Assay in all cases: BIAcore
Experiment [1] addresses T1, recombinant human IL-12 (rhIL-12) (human, UniProt P29459 23-219; P29460 23-328).
T1 chain 1: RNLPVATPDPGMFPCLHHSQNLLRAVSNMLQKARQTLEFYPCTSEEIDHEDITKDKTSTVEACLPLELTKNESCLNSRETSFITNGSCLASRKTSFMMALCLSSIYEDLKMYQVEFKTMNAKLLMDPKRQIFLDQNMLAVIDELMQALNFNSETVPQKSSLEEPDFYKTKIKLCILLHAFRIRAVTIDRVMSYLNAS
T1 chain 2: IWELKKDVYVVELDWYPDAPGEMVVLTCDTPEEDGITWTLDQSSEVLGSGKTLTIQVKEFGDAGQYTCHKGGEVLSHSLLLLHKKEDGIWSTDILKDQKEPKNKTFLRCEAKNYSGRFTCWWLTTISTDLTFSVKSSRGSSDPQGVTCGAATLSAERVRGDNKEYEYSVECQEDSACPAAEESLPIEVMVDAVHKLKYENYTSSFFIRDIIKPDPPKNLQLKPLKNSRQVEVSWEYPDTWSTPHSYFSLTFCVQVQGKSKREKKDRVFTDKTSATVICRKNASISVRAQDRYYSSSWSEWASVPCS

The target of experiment [2] is T1, recombinant human IL-12 (rhIL-12).
The target in experiment [3] is T2, recombinant human interleukin 12 (p40/p35 heterodimer) (human, UniProt P29460 23-328; P29459 23-219).
T2 chain 1: T1 chain 2
T2 chain 2: T1 chain 1

B1: Y61 L30 T (peptide)
chain: SGGRSNIGTNTVK
Consider B1, for which the dissociation rate constant (koff) in experiment [1] turned out to be 0.000226 s⁻¹.

B2: Y61 L92 N (peptide)
chain: QSYNRGTHPALL
Regarding B2, in experiment [2], the koff stood at 0.000347 s⁻¹.

B3: Y61 L93 G (peptide)
chain: QSYDGGTHPALL
In the case of B3, the koff in experiment [2] amounted to 0.000392 s⁻¹.

B4: Y61 L32 P (peptide)
chain: SGGRSNIGSNPVK
On to B4, for which the koff in experiment [1] amounted to 0.000424 s⁻¹.

B5: Y61 L93 M (peptide)
chain: QSYDMGTHPALL
On to B5, for which the koff in experiment [2] was 0.000275 s⁻¹.

B6: Y61 L92 L (peptide)
chain: QSYLRGTHPALL
For B6, in experiment [2], the koff was 0.000728 s⁻¹.

B7: Y61 L94 L (peptide)
chain: QSYDRLTHPALL
As for B7, the dissociation rate constant (koff) in experiment [2] came to 0.000244 s⁻¹.

B8: Y61 L94 V (peptide)
chain: QSYDRVTHPALL
Consider B8, for which the off-rate (koff) in experiment [2] worked out at 0.000351 s⁻¹.

B9: Y61 L92 A (peptide)
chain: QSYARGTHPALL
On to B9, for which the koff in experiment [2] stood at 0.000357 s⁻¹.

B10: Y61 L93 Y (peptide)
chain: QSYDYGTHPALL
Turning to B10, the dissociation rate constant (koff) in experiment [2] is 0.000335 s⁻¹.

B11: Y61 L94 I (peptide)
chain: QSYDRITHPALL
B11: in experiment [2], the dissociation rate constant (koff) is 0.000276 s⁻¹.

B12: Y61 L94 S (peptide)
chain: QSYDRSTHPALL
In the case of B12, the dissociation rate constant (koff) in experiment [2] was found to be 0.000287 s⁻¹.

B13: Y61 L92 S (peptide)
chain: QSYSRGTHPALL
Take B13: the dissociation rate constant (koff) in experiment [2] stood at 0.000307 s⁻¹.

B14: Y61 L94 T (peptide)
chain: QSYDRTTHPALL
For the molecule B14, in experiment [2], the off-rate (koff) worked out at 0.000305 s⁻¹.

B15: Y61 L94 D (peptide)
chain: QSYDRDTHPALL
For the molecule B15, the koff in experiment [2] was determined as 0.000253 s⁻¹.

B16: Y61 L92 Q (peptide)
chain: QSYQRGTHPALL
With B16, the koff in experiment [2] was determined as 0.000427 s⁻¹.

B17: Y61 L30 Y (peptide)
chain: SGGRSNIGYNTVK
On to B17, for which, in experiment [1], the dissociation rate constant (koff) came out at 0.000483 s⁻¹.

B18: Y61 L32 C (peptide)
chain: SGGRSNIGSNCVK
Turning to B18, the koff in experiment [1] amounted to 0.00381 s⁻¹.

B19: Y61 L93 N (peptide)
chain: QSYDNGTHPALL
Regarding B19, the koff in experiment [2] came out at 0.000316 s⁻¹.

B20: Y61 L93 C (peptide)
chain: QSYDCGTHPALL
Regarding B20, in experiment [2], the koff came to 0.00032 s⁻¹.

B21: Y61 L93 V (peptide)
chain: QSYDVGTHPALL
As to B21, in experiment [2], the off-rate constant (koff) was determined as 0.000269 s⁻¹.

B22: Y61 L31 M (peptide)
chain: SGGRSNIGSMTVK
Take B22: the koff in experiment [1] turned out to be 0.000174 s⁻¹.

B23: Y61 L92 T (peptide)
chain: QSYTRGTHPALL
Regarding B23, the koff in experiment [2] was found to be 0.000408 s⁻¹.

B24: Y61 L93 I (peptide)
chain: QSYDIGTHPALL
Consider B24, for which the koff in experiment [2] was found to be 0.000295 s⁻¹.

B25: Y61 L93 T (peptide)
chain: QSYDTGTHPALL
Regarding B25, in experiment [2], the off-rate (koff) amounted to 0.000316 s⁻¹.

B26: Y61 L93 Q (peptide)
chain: QSYDQGTHPALL
For the molecule B26, the koff in experiment [2] was 0.0003 s⁻¹.

B27: Y61 L94 C (peptide)
chain: QSYDRCTHPALL
On to B27, for which, in experiment [2], the off-rate constant (koff) stood at 0.00052 s⁻¹.

B28: Y61 L94 P (peptide)
chain: QSYDRPTHPALL
In the case of B28, the off-rate constant (koff) in experiment [2] turned out to be 0.000332 s⁻¹.

B29: Y61 L31 D (peptide)
chain: SGGRSNIGSDTVK
As for B29, the koff in experiment [1] was 0.00058 s⁻¹.

B30: Y61 L32 S (peptide)
chain: SGGRSNIGSNSVK
With B30, the off-rate (koff) in experiment [1] came out at 0.00191 s⁻¹.

B31: Y61 L32 A (peptide)
chain: SGGRSNIGSNAVK
For the molecule B31, the koff in experiment [1] is 0.00191 s⁻¹.

B32: Y61 L32 K (peptide)
chain: SGGRSNIGSNKVK
On to B32, for which the koff in experiment [1] is 0.000318 s⁻¹.

B33: Y61 L32 N (peptide)
chain: SGGRSNIGSNNVK
As for B33, in experiment [1], the koff was 0.00197 s⁻¹.

B34: Y61 L32 Y (peptide)
chain: SGGRSNIGSNYVK
For B34, the koff in experiment [1] came out at 0.000213 s⁻¹.

B35: Y61 L31 G (peptide)
chain: SGGRSNIGSGTVK
With B35, the koff in experiment [1] amounted to 0.000366 s⁻¹.

B36: Y61 L32 Q (peptide)
chain: SGGRSNIGSNQVK
Regarding B36, the koff in experiment [1] was 0.00247 s⁻¹.

B37: Y61 L93 W (peptide)
chain: QSYDWGTHPALL
On to B37, for which, in experiment [2], the off-rate constant (koff) turned out to be 0.000349 s⁻¹.

B38: Y61 L92 C (peptide)
chain: QSYCRGTHPALL
With B38, the off-rate constant (koff) in experiment [2] was found to be 0.000453 s⁻¹.

B39: Y61 L93 L (peptide)
chain: QSYDLGTHPALL
Regarding B39, in experiment [2], the koff came to 0.0003 s⁻¹.

B40: Y61 L31 H (peptide)
chain: SGGRSNIGSHTVK
With B40, in experiment [1], the koff turned out to be 0.000315 s⁻¹.

B41: Y61 L30 C (peptide)
chain: SGGRSNIGCNTVK
B41: in experiment [1], the off-rate (koff) is 0.000186 s⁻¹.

B42: Y61 L94 R (peptide)
chain: QSYDRRTHPALL
For B42, in experiment [2], the koff came to 0.000231 s⁻¹.

B43: Y61 L94 A (peptide)
chain: QSYDRATHPALL
For the molecule B43, the off-rate (koff) in experiment [2] was 0.000526 s⁻¹.

B44: Y61 L94 Q (peptide)
chain: QSYDRQTHPALL
Take B44: in experiment [2], the koff amounted to 0.00025 s⁻¹.

B45: Y61 L31 Y (peptide)
chain: SGGRSNIGSYTVK
Consider B45, for which the off-rate (koff) in experiment [1] turned out to be 0.000357 s⁻¹.

B46: Y61 L93 D (peptide)
chain: QSYDDGTHPALL
Turning to B46, the koff in experiment [2] worked out at 0.000343 s⁻¹.

B47: Y61 L94 W (peptide)
chain: QSYDRWTHPALL
Take B47: the koff in experiment [2] stood at 0.000293 s⁻¹.

B48: Y61 L31 I (peptide)
chain: SGGRSNIGSITVK
Consider B48, for which the koff in experiment [1] was 9.7e-05 s⁻¹.

B49: Y61 L92 I (peptide)
chain: QSYIRGTHPALL
Consider B49, for which the off-rate constant (koff) in experiment [2] turned out to be 0.000618 s⁻¹.

B50: Y61 L30 N (peptide)
chain: SGGRSNIGNNTVK
Consider B50, for which the off-rate (koff) in experiment [1] worked out at 0.000166 s⁻¹.

B51: Y61 L32 L (peptide)
chain: SGGRSNIGSNLVK
On to B51, for which, in experiment [1], the off-rate constant (koff) worked out at 0.00215 s⁻¹.

B52: Y61 L93 P (peptide)
chain: QSYDPGTHPALL
As to B52, the koff in experiment [2] stood at 0.000349 s⁻¹.

B53: Y61 L30 D (peptide)
chain: SGGRSNIGDNTVK
As for B53, the off-rate constant (koff) in experiment [1] came to 0.00022 s⁻¹.

B54: Y61 H97 W (peptide)
chain: HGWHDN
As for B54, the off-rate (koff) in experiment [3] came to 0.00239 s⁻¹.

B55: Y61 L92 F (peptide)
chain: QSYFRGTHPALL
On to B55, for which, in experiment [2], the off-rate constant (koff) came out at 0.000449 s⁻¹.

B56: Y61 L32 V (peptide)
chain: SGGRSNIGSNVVK
As for B56, the off-rate (koff) in experiment [1] worked out at 0.00164 s⁻¹.

B57: Y61 L92 Y (peptide)
chain: QSYYRGTHPALL
B57: the koff in experiment [2] came out at 0.000511 s⁻¹.

B58: Y61 L92 W (peptide)
chain: QSYWRGTHPALL
As to B58, in experiment [2], the off-rate constant (koff) amounted to 0.00072 s⁻¹.

B59: Y61 L93 S (peptide)
chain: QSYDSGTHPALL
In the case of B59, the off-rate constant (koff) in experiment [2] was found to be 0.000341 s⁻¹.

B60: Y61 L93 A (peptide)
chain: QSYDAGTHPALL
With B60, the koff in experiment [2] is 0.00031 s⁻¹.

B61: Y61 L94 H (peptide)
chain: QSYDRHTHPALL
Consider B61, for which, in experiment [2], the koff is 0.000187 s⁻¹.

B62: Y61 L92 G (peptide)
chain: QSYGRGTHPALL
With B62, the koff in experiment [2] is 0.000349 s⁻¹.
